# ± gives the uncertainty stated by the source.
# B1: GAS2-like protein 1, residues 209 to 276; numbered along this chain, Q99501 (parent)
# chain: DELVREILGRCTCPDQFPMIKVSEGKYRVGDSSLLIFVRVLRSHVMVRVGGGWDTLEHYLDKHDPCRC
# Variants of: B1
# Assay: abundance fitness (aPCA) (normalised: wild type 0, dead -1); higher = more abundant; growth selection in yeast, the domain comes from the species named
# Conditions: Homo sapiens
row,Variant,abundance fitness
1,V45P,-0.169 ± 0.098
2,V45Q,-0.919 ± 0.14
3,G51D,0.176 ± 0.057
4,G51C,-0.157 ± 0.077
5,G51E,0.229 ± 0.065
6,G51A,0.024 ± 0.072
7,G51H,0.004 ± 0.17
8,R39S,-0.144 ± 0.045
9,R39F,-0.172 ± 0.09
10,R39P,-0.728 ± 0.12
11,R39D,0.089 ± 0.11
12,R39I,-0.294 ± 0.068
13,R39C,-0.216 ± 0.11
14,R39G,-0.242 ± 0.06
15,R39M,-0.172 ± 0.097
16,R39A,-0.14 ± 0.07
17,R39Q,-0.03 ± 0.067
18,R39Y,-0.333 ± 0.078
19,R39H,-0.049 ± 0.11
20,R39V,-0.236 ± 0.069
21,R39E,-0.179 ± 0.074
22,R39L,-0.368 ± 0.066
23,R39W,-0.695 ± 0.23
24,R39T,-0.058 ± 0.087

row,Variant,abundance fitness
1,V40K,0.129 ± 0.14
2,V40N,0.029 ± 0.1
3,V40Q,-0.28 ± 0.19
4,V40S,-0.319 ± 0.091
5,V40M,-0.259 ± 0.1
6,V40Y,-0.26 ± 0.31
7,V40F,-0.369 ± 0.095
8,V40T,-0.137 ± 0.095
9,V40R,-0.025 ± 0.049
10,V40H,-0.308 ± 0.14
11,V40W,-0.661 ± 0.31
12,V40G,-0.349 ± 0.084
13,V40P,-0.44 ± 0.11
14,V40E,-0.196 ± 0.4
15,V40C,-0.097 ± 0.074
16,I36V,-0.017 ± 0.099
17,I36R,-0.542 ± 0.1
18,I36F,-0.346 ± 0.11
19,I36G,-0.683 ± 0.22
20,I36S,-0.673 ± 0.13
21,I36W,-0.705 ± 0.26
22,I36D,-0.863 ± 0.43
23,I36K,-0.398 ± 0.18
24,I36L,0.148 ± 0.056

row,Variant,abundance fitness
1,I36C,0.169 ± 0.097
2,I36M,0.058 ± 0.11
3,I36A,-0.209 ± 0.076
4,I36P,-0.592 ± 0.25
5,I36T,-0.314 ± 0.11
6,I36Y,-0.444 ± 0.15
7,I36Q,-0.992 ± 0.34
8,G50R,-0.18 ± 0.044
9,G50Q,-0.017 ± 0.055
10,G50L,-0.473 ± 0.05
11,G50F,-0.896 ± 0.23
12,G50V,-0.541 ± 0.12
13,G50S,-0.143 ± 0.05
14,G50D,0.076 ± 0.068
15,G50M,-0.28 ± 0.085
16,G50W,-0.803 ± 0.13
17,G50I,-0.765 ± 0.13
18,G50A,-0.08 ± 0.086
19,G50T,-0.259 ± 0.051
20,G50N,0.007 ± 0.11
21,G50C,-0.517 ± 0.078
22,G50K,-0.03 ± 0.05
23,G50H,-0.205 ± 0.072
24,G50E,0.011 ± 0.061

row,Variant,abundance fitness
1,G50P,-0.039 ± 0.043
2,G50Y,-0.5 ± 0.12
3,F37N,0.31 ± 0.078
4,F37W,0.051 ± 0.055
5,F37Q,0.248 ± 0.061
6,F37V,0.054 ± 0.04
7,F37E,0.383 ± 0.049
8,F37M,0.066 ± 0.078
9,F37R,0.189 ± 0.031
10,F37P,0.256 ± 0.048
11,F37Y,-0.07 ± 0.12
12,F37K,0.134 ± 0.051
13,F37L,0.141 ± 0.037
14,F37S,0.306 ± 0.038
15,F37C,0.154 ± 0.081
16,F37A,0.106 ± 0.042
17,F37D,0.37 ± 0.089
18,F37G,0.064 ± 0.038
19,F37I,-0.007 ± 0.068
20,V38P,-0.3 ± 0.12
21,V38A,-0.465 ± 0.1
22,V38L,-0.275 ± 0.1
23,V38S,-0.626 ± 0.15
24,V38R,-0.745 ± 0.15

row,Variant,abundance fitness
1,V38Q,-0.837 ± 0.42
2,V38G,-0.566 ± 0.14
3,V38M,-0.587 ± 0.22
4,V38N,-0.737 ± 0.25
5,V38C,-0.058 ± 0.15
6,V38T,-0.402 ± 0.49
7,V38I,-0.322 ± 0.22
8,V38F,-0.809 ± 0.35
9,G30W,-0.952 ± 0.19
10,G30V,-0.646 ± 0.08
11,S43G,0.253 ± 0.054
12,S43V,-0.58 ± 0.11
13,S43M,-0.362 ± 0.12
14,S43N,0.124 ± 0.064
15,S43L,-0.648 ± 0.12
16,S43Y,-0.405 ± 0.43
17,S43E,0.164 ± 0.12
18,S43T,-0.011 ± 0.13
19,S43W,-0.462 ± 0.32
20,S43A,-0.158 ± 0.076
21,S43P,0.01 ± 0.059
22,S43F,-0.175 ± 0.14
23,V49I,-0.133 ± 0.058
24,V49L,-0.319 ± 0.046

row,Variant,abundance fitness
1,V49Q,0.146 ± 0.062
2,V49K,-0.324 ± 0.089
3,V49F,-0.337 ± 0.074
4,V49S,-0.048 ± 0.042
5,V49N,0.013 ± 0.072
6,V49C,-0.069 ± 0.12
7,V49G,-0.25 ± 0.14
8,V49R,-0.247 ± 0.055
9,V49M,-0.133 ± 0.06
10,V49Y,-0.035 ± 0.058
11,V49A,0.007 ± 0.041
12,V49D,0.256 ± 0.076
13,S32M,-0.252 ± 0.06
14,S32Q,-0.044 ± 0.061
15,S32T,-0.026 ± 0.063
16,S32K,-0.175 ± 0.053
17,S32D,0.098 ± 0.053
18,S32A,-0.064 ± 0.046
19,S32W,-0.892 ± 0.19
20,S32P,-0.121 ± 0.056
21,S32E,0.013 ± 0.056
22,S32R,-0.142 ± 0.04
23,S32N,-0.071 ± 0.05
24,S32G,-0.085 ± 0.047

row,Variant,abundance fitness
1,S32V,-0.596 ± 0.073
2,S32Y,-0.455 ± 0.096
3,S32I,-0.755 ± 0.16
4,S32H,-0.16 ± 0.074
5,S32F,-0.749 ± 0.11
6,R42Q,-0.005 ± 0.057
7,R42C,-0.187 ± 0.069
8,R42I,-0.913 ± 0.24
9,R42H,0.074 ± 0.067
10,R42D,0.134 ± 0.075
11,R42N,0.119 ± 0.069
12,R42Y,-0.155 ± 0.069
13,R42T,-0.334 ± 0.078
14,R42S,-0.143 ± 0.072
15,R42G,0.121 ± 0.05
16,R42M,-0.1 ± 0.088
17,R42E,-0.136 ± 0.11
18,R42P,-0.424 ± 0.2
19,R42V,-0.639 ± 0.12
20,R42A,-0.066 ± 0.068
21,R42W,-0.289 ± 0.08
22,R42L,-0.541 ± 0.066
23,R42F,-0.246 ± 0.074

# Source: the Human Domainome abundance scans (Beltran et al. 2025)
